# Experimental data reported in patent US20260061032A1 (GI INNOVATION, published 2026).
# T1: membrane-bound human CD73 (human, UniProt P21589 27-549)
# T1 sequence: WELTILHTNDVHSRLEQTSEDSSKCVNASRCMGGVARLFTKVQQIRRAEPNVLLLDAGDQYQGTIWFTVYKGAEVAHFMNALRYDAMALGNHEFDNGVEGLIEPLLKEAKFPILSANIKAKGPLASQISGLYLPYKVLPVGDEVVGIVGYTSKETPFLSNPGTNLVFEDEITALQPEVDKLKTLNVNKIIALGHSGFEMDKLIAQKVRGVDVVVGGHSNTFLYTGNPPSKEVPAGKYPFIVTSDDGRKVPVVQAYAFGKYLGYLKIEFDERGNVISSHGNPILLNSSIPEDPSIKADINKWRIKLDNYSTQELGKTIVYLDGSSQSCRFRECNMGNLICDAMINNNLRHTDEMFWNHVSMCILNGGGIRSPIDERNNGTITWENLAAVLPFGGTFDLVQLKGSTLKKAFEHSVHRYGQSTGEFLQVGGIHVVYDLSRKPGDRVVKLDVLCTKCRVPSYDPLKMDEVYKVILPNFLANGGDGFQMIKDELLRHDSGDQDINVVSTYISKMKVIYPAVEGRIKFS
# T2: hCD73 (human, UniProt P21589 27-549, limits assumed)
# T2 sequence: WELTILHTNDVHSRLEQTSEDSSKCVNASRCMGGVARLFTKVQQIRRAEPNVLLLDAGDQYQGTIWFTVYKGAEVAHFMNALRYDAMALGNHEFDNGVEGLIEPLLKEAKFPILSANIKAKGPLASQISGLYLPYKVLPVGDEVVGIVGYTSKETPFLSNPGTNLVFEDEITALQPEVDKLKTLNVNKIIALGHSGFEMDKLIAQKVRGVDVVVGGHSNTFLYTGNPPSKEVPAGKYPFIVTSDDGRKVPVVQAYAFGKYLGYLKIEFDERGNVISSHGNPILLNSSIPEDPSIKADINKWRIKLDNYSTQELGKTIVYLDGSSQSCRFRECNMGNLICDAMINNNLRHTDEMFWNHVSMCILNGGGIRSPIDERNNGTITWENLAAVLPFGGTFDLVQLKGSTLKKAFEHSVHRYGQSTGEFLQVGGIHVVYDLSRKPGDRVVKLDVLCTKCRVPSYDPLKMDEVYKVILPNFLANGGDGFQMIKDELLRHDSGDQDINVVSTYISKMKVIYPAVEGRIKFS
# T3: hIL-2Rβ (human, UniProt P14784 27-239)
# T3 construct: also called hIL-2RB
# T3 sequence (looked up): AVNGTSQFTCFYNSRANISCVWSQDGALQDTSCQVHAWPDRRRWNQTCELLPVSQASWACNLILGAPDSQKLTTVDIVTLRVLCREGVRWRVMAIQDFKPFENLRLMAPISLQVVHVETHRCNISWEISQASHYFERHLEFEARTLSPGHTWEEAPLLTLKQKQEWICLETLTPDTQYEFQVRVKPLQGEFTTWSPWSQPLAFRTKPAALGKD
# T4: hIL-2Rα (human, UniProt P01589 22-213)
# T4 construct: also called hIL-2Ra; IL-2 receptor alpha chain
# T4 sequence (looked up): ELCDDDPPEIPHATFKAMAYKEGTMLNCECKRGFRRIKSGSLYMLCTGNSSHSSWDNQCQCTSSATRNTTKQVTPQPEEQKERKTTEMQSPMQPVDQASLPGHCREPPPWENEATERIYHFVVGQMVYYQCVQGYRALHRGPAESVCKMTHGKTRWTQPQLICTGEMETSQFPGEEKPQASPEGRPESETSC
# T5: hIL-2Rβγ (human, UniProt P14784 27-239; P31785 23-254)
# T5 construct: Soluble beta/gamma heterodimer used as SPR analyte
# T5 sequence (looked up) 1: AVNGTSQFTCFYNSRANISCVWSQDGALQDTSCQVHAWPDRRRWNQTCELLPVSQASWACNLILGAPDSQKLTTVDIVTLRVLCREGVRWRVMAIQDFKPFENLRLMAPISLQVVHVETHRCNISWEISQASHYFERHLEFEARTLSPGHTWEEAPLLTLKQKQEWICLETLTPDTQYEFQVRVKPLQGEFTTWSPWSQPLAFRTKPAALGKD
# T5 sequence (looked up) 2: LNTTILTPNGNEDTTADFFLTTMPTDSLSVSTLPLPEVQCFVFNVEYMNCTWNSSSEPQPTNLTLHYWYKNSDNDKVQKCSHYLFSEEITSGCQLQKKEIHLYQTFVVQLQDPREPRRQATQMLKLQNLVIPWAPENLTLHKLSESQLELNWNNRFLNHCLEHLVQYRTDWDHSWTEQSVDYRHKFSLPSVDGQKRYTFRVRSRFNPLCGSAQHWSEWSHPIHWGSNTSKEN
# B1: GI-108A1 (AHF10240) (Anti-CD73 sdAb-hIgG4 Fc-hIL2v3 fusion protein dimer) (Fc fusion)
# chain: EVQLVESGGGVVQTGGSLRLSCAASGRTFTHLAMGWFRQAPGKEREFVAAISNSGAGTQFADSVKGRFTISRDNAKNTVYLQMNSLKPEDTAVYYCAADWGTRDSPSKLNAVYDYWGRGTQVTVSSGGGGSAESKYGPPCPPCPAPEAAGGPSVFLFPPKPKDQLMISRTPEVTCVVVDVSQEDPEVQFNWYVDGVEVHNAKTKPREEQFNSTYRVVSVLTVLHQDWLNGKEYKCKVSNKGLPSSIEKTISKAKGQPREPQVYTLPPSQEEMTKNQVSLTCLVKGFYPSDIAVEWESNGQPENNYKTTPPVLDSDGSFFLYSRLTVDKSRWQEGNVFSCSVLHEALHNHYTQKSLSLSLGGGGGSGGGGSGGGGSAPTSSSTKKTQLQLEHLLLDLQMILNGINNYKNPKLTAMLTAKFYMPKKATELKHLQCLERELKPLEEVLNLAQSKNFHLRPRDLISNINVIVLELKGSETTFMCEYADETATIVEFLNRWITFCQSIISTLT
# notes: Homodimer through hinge cysteines
# B2: GI-108A1 (AHP04167) (Anti-CD73 sdAb-hIgG4 Fc-hIL2v3 fusion protein dimer) (Fc fusion)
# chain: EVQLVESGGGLVQAGGSLRLSCVVSGRTFSNYHMGWFRQAPGKEREFVAVIGRSGGPTYYADSVKGRFTISRDNAKNTVYLQMNSLKPEDTAVYYCAGDWRNSDSPSKLKPVYDYWGQGTQVTVSSGGGGSAESKYGPPCPPCPAPEAAGGPSVFLFPPKPKDQLMISRTPEVTCVVVDVSQEDPEVQFNWYVDGVEVHNAKTKPREEQFNSTYRVVSVLTVLHQDWLNGKEYKCKVSNKGLPSSIEKTISKAKGQPREPQVYTLPPSQEEMTKNQVSLTCLVKGFYPSDIAVEWESNGQPENNYKTTPPVLDSDGSFFLYSRLTVDKSRWQEGNVFSCSVLHEALHNHYTQKSLSLSLGGGGGSGGGGSGGGGSAPTSSSTKKTQLQLEHLLLDLQMILNGINNYKNPKLTAMLTAKFYMPKKATELKHLQCLERELKPLEEVLNLAQSKNFHLRPRDLISNINVIVLELKGSETTFMCEYADETATIVEFLNRWITFCQSIISTLT
# notes: as for B1
# B3: GI-108B1 (Anti-CD73 Ab-hIgG4 Fc-hIL2v3 fusion protein dimer) (antibody)
# heavy: QVQLVQSGAEVKKPGSSVKVSCKFSGGSFTSYSFSWVRQAPGQGLEWMGRIIPVLTTTDYAQKFRDRVTITADESTSTAYMELSGLRSEDTAVYYCASGLKKNWYFDLWGRGALITVSSASTKGPSVFPLAPCSRSTSESTAALGCLVKDYFPEPVTVSWNSGALTSGVHTFPAVLQSSGLYSLSSVVTVPSSSLGTKTYTCNVDHKPSNTKVDKRVESKYGPPCPPCPAPEAAGGPSVFLFPPKPKDQLMISRTPEVTCVVVDVSQEDPEVQFNWYVDGVEVHNAKTKPREEQFNSTYRVVSVLTVLHQDWLNGKEYKCKVSNKGLPSSIEKTISKAKGQPREPQVYTLPPSQEEMTKNQVSLTCLVKGFYPSDIAVEWESNGQPENNYKTTPPVLDSDGSFFLYSRLTVDKSRWQEGNVFSCSVLHEALHNHYTQKSLSLSLGGGGGSGGGGSAPTSSSTKKTQLQLEHLLLDLQMILNGINNYKNPKLTAMLTAKFYMPKKATELKHLQCLERELKPLEEVLNLAQSKNFHLRPRDLISNINVIVLELKGSETTFMCEYADETATIVEFLNRWITFCQSIISTLT
# light: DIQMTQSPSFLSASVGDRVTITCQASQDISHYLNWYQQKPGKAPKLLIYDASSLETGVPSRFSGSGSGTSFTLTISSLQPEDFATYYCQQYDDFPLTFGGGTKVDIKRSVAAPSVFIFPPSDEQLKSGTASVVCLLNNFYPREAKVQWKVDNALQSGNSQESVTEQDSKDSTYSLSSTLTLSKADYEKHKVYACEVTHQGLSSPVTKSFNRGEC
# notes: IgG4 anti-CD73 antibody with the IL-2 variant fused to the C-terminus of each heavy chain; expressed in CHO cells, purified as a dimer
# Experiments:
# [1] = target: T1, membrane-bound human CD73; test: cell-based or functional assay
# hCD73 = target: T2, hCD73; test: cell-based or functional assay
# hIL-2Rβ = target: T3, hIL-2Rβ; test: SPR, Biacore T200; biotinylated CD73 on SA chip, binder bound to CD73, hIL-2Rβ as analyte
# Method: (§1) To quantitatively analyze the binding affinities to CD73 and IL-2 receptors of […] and GI-108B1, in which the anti-CD73 antibody that specifically binds to CD73 was linked to the IL-2 variant, and Aldesleukin (trade name: PROLEUKIN®, Novartis), the binding affinities were measured using SPR (surface plasmon resonance). Using a BIACORE™ T200 instrument (Cytiva), the binding affinities of GI-108A1 (AHF10240), GI-108A1 (AHP04167) and GI-108B1 to hCD73, cyCD73, mCD73, hIL-2Rα, hIL-2Rβ, and hIL-2Rβγ were analyzed. Oleclumab (Astrazeneca), produced on order from Ybiologics, Inc., was used as a control.
# (§2) To analyze the binding affinity to hIL-2Ra, hIL-2Ra was […] immobilized on Sensor Chip CM5 using a His capture kit (Cytiva, USA). Each of GI-108A1 (AHF10240), GI-108A1 (AHP04167), GI-108B1 and PROLEUKIN®, diluted in HBS-EP+ buffer, was then applied for 1 minute, followed by analysis of association and dissociation. In addition, the binding affinities to hIL-2RB and hIL-2Rβγ were measured by a three-step analysis method including treating Sensor Chip SA (Cytiva, USA) with biotinylated CD73, and then binding each of GI-108A1 (AHF10240), GI-108A1 (AHP04167), GI-108B1 and PROLEUKIN® to CD73, followed by treatment with each of hIL-2RB and hIL-2Rβγ diluted in HBS-P+ buffer (Cytiva, USA). For hIL-2RB, association was performed for 1 minute and dissociation for 1 minute, and for hIL-2Rβγ, association was performed for 5 minutes and dissociation for 2 hours at each concentration, in a single cycle kinetics analysis. Each sensorgram was normalized and subtracted compared to a blank cell to calculate affinity.
# hIL-2Rα = target: T4, hIL-2Rα; test: SPR, Biacore T200; hIL-2Rα on CM5 chip through His capture kit, binder as analyte
# Method: as §1, §2
# hIL-2Rβγ = target: T5, hIL-2Rβγ; test: SPR, Biacore T200; biotinylated CD73 on SA chip, binder bound to CD73, hIL-2Rβγ as analyte, single cycle kinetics
# Method: as §1, §2
Binder,"IC50, inhibition of membrane-bound CD73 enzyme activity on MDA-MB-231 cells (adenosine assay) [1] [nM]","IC50, inhibition of soluble CD73 enzyme activity (AMP-Glo assay, recombinant human CD73) (hCD73) [nM]",Kd (hIL-2Rβ) [nM],binding result (hIL-2Rα),Kd (hIL-2Rβγ) [nM]
B1,2.75,0.06,2500,no binding,0.417
B2,5.58,0.102,2070,no binding,0.327
B3,3.37,0.126,2290,no binding,0.2
